US20120034232A1 (INNATE PHARMA, published 2012)

Assays:
[1] = biological target: recombinant human His-tagged TLR3 extracellular domain recombinant protein (R&D systems, #1487-TR-050) (human) (UniProt O15455); assay: SPR (Biacore T100), rhTLR3 immobilised on CM5 chip, antibody in solution, bivalent affinity, pH 7.2, mean of 2 or 3 experiments
[2] = biological target: recombinant human His-tagged TLR3 extracellular domain recombinant protein (R&D systems, #1487-TR-050) (human) (UniProt O15455); assay: SPR (Biacore T100), rhTLR3 immobilised on CM5 chip, antibody in solution, bivalent affinity, pH 5.6, mean of 2 or 3 experiments
[3] = biological target: T1, human TLR3 expressed in cells (293T cells stably transfected with pUNO-hTLR3); endogenous TLR3 of human … (human, UniProt O15455 24-904); assay: cell-based or functional assay
[4] = biological target: T2, recombinant human His-tagged TLR3 extracellular domain recombinant protein (R&D systems, #1487-TR-050) (human, UniProt O15455 24-704); assay: ELISA, His-tagged rec TLR3 (reference: His-tagged rec TLR4) on Ni-NTA plates, hybridoma supernatant
T2 construct: Bought protein; also called recombinant human TLR3; rhTLR3; not shown: His tag

[5] = biological target: T1, human TLR3 expressed in cells (293T …); assay: cell-based or functional assay; remark: listed apart in the source

| Kd [1] [nM] | Kd [2] [nM] | IC50 of inhibition of luciferase expression, polyAU 100 µg/ml [3] [µg/mL] | ratio of DO obtained in TLR3 ELISA to DO obtained in TLR4 ELISA [4] | IC50 of inhibition of luciferase expression in 293-huTLR3 cells, polyAU 300 µg/ml [5] [µg/mL] | Molecule |
| --- | --- | --- | --- | --- | --- |
| 45 | 9 |  |  |  | anti-TLR3 antibody TLR3.7 (eBiosciences) |
|  |  | < 5 | > 10 | 1.83 | anti-TLR3 monoclonal antibody 23C8 (antibody, V domains shown) VH: EVQLQQSGPELVKPGASVKISCKASGYSFTGYFMHWVKQSHVKSLEWIGRINPYNGATSYNQNFKDKASLTVDKSSSTSYMELHSLTSEDSAVYYCVRDDGGNYPFDYWGQGTTLTVS VL: DIQMTQSPASLSASVGETVTITCRASENIYSYLAWYQQKQGKSPQLLVYYAKTLAEGVPSRFSGSGTGTQFSLKINSLQPEDFGSYYCQHHYGTPYTFGGGTKLEIK |
|  |  |  | > 10 | 5.56 | anti-TLR3 monoclonal antibody 28F11 (antibody, V domains shown) VH: EVQLQQSGPELVKPGASVKISCKASGYSFTGYYIHWVKQSHVKSLEWIGRINPYYGATSYNQNFKDKANLTVDKSSSTAYMELHSLTSDDSAVYYCARSTKLGYLDYWGQGTTLTVS VL: DIQMTQSPASLSASVGETVTITCRASENIYSNLAWYQQKQGKSPQLLIYNAKTLAEGVPSRFSGSGSGTQYFLKINSLQPEDFGSYYCQHHYGTPFTFGGGTKLEIK |
|  |  | < 5 |  |  | anti-TLR3 monoclonal antibody 34A3 (antibody, V domains shown) VH: EIQLQQSGPELVKPGASVKVSCKASGYVFTTYSIYWVKQSHGKSLEWIGYIDPYNGDTSYNQKFKGKATLTVDKSSSTAYMHLNSLTSEDSTVYYCAREGNYYGYFDYWGQGTTLTVS VL: QIVLTQSPALMSASPGEKVTMTCSASSSVSYMFWYQQKPRSSPKPWIYLTSNLASGVPARFSGSGSGTSYSLTISSMEAEDAATYYCQQWTGNPPTFGGGTKLEIK |
|  |  |  | > 10 |  | anti-TLR3 monoclonal antibody 29H3 (antibody, V domains shown, also called 29H3.7; CNCM I-4187) VH: DVQLQESGPDLVKPSQSLSLTCTVTGYSITSGYSWHWIRQFLGNKLEWMGYIHYSGITNYNPSLRSRISFTRDTSKNQFFLQLNSVTTEDTATYYCARDGYYGMDYWGQGTSVTVS VL: DIVMTQSQKFMSTSVGDRVSITCKASQNVRTSVAWYQQKPGQSPKALIYLASNRHTGVPDRFTGSGSGTDFTLTVSNIQSEDLADYFCLQHWNYPYTFGGGTKLEIK |
